Assay results: patent US6083709

Legend:
Test in all cases: p53 two-site sandwich ELISA, sample tested at 100 ng/ml
[1] = target: hG-CSF (human (by the printed prefix h; not spelled out)) (UniProt P09919)
[2] = target: hrIL-2 (human (by the printed prefix hr; not spelled out)) (UniProt P60568)
[3] = target: hrIL-3 (human (by the printed prefix hr; not spelled out)) (UniProt P08700)
[4] = target: hrGM-CSF (human (by the printed prefix hr; not spelled out)) (UniProt P04141)
[5] = target: hrTNFα (human (by the printed prefix hr; not spelled out)) (UniProt P01375)
[6] = target: bInsulin (bovine (by the printed prefix b; not spelled out)) (UniProt P01317)
[7] = target: hTransferin (human (by the printed prefix h; not spelled out)) (UniProt P02787)
[8] = target: hrIL-1α (human (by the printed prefix hr; not spelled out)) (UniProt P01583)
[9] = target: hPDGF (human (by the printed prefix h; not spelled out))
[10] = target: hrIL-4 (human (by the printed prefix hr; not spelled out)) (UniProt P05112)
[11] = target: hrIL-6 (human (by the printed prefix hr; not spelled out)) (UniProt P05231)
[12] = target: hrIGF-1 (human (by the printed prefix hr; not spelled out)) (UniProt P05019)
[13] = target: hrIL-1β (human (by the printed prefix hr; not spelled out)) (UniProt P01584)

Assay Results (apparent mutant p53 read in the p53 ELISA) [1]: < 50 pg/mL
Assay Results (apparent mutant p53 read in the p53 ELISA) [2]: < 50 pg/mL
Assay Results (apparent mutant p53 read in the p53 ELISA) [3]: < 50 pg/mL
Assay Results (apparent mutant p53 read in the p53 ELISA) [4]: < 50 pg/mL
Assay Results (apparent mutant p53 read in the p53 ELISA) [5]: < 50 pg/mL
Assay Results (apparent mutant p53 read in the p53 ELISA) [6]: < 50 pg/mL
Assay Results (apparent mutant p53 read in the p53 ELISA) [7]: < 50 pg/mL
Assay Results (apparent mutant p53 read in the p53 ELISA) [8]: < 50 pg/mL
Assay Results (apparent mutant p53 read in the p53 ELISA) [9]: < 50 pg/mL
Assay Results (apparent mutant p53 read in the p53 ELISA) [10]: < 50 pg/mL
Assay Results (apparent mutant p53 read in the p53 ELISA) [11]: < 50 pg/mL
Assay Results (apparent mutant p53 read in the p53 ELISA) [12]: < 50 pg/mL
Assay Results (apparent mutant p53 read in the p53 ELISA) [13]: < 50 pg/mL
Substance: monoclonal antibody from clone PAb240
